No end group written: not given here.
Legend:
Test in all cases: ELISA, biotinylated 12-mer peptide on streptavidin, 2 ug/mL FLAG-tagged VHH, anti-FLAG-HRP
[1] = molecular target: T1, FX activation peptide 12-mer SITWKPYDAADL (SEQ ID NO:707) (human)
T1 peptide: SITWKPYDAADL-biotin
Protocol: (§1) To determine whether the binding epitope of the anti-FX VHH polypeptide designated “cmpd #1” are located inside the activation peptide (AP) of human FX (SEQ ID NO:2), an ELISA assay was setup. 41 unique 12-mer peptide fragments spanning the 52 residues of the activation peptide with one amino acid spacing were immobilized in microtiter plate wells followed by incubation with the VHH polypeptide to be tested, and detection of bound ligand was performed by addition of a secondary HRP-labelled antibody.
(§2) The peptides were C-terminally conjugated to biotin and 50 μL of 1 μg/mL peptide solution was used for immobilization in discrete wells of the microtiter plate which was pre-coated with 1 μg/mL streptavidin. Each well was washed with washing buffer (10 mM Tris, 150 mM NaCl, 2.5 mM CaCl₂, 0.05% Tween 20, pH 8.60) followed by addition of 50 μL of 2 μg/mL FLAG-tagged anti-FX VHH polypeptide or IgG antibody to be tested. After 1 hour non-bound VHH polypeptide was washed off using washing buffer.
(§3) Bound anti-FX activation peptide ligand was detected by first binding a HRP-labelled secondary antibody (for FLAG-tagged VHH polypeptide: Anti-FLAG mAb M2-Peroxidase (HRP) (Sigma Aldrich, US) for 1 hour, and then adding 100 μL TMB-1 ELISA substrate (Kem-En-Tec Diagnostics, Denmark).

[2] = molecular target: T2, FX activation peptide 12-mer APDSITWKPYDA (SEQ ID NO:704) (human)
T2 peptide: APDSITWKPYDA-biotin
Protocol: as §1, §2, §3

[3] = molecular target: T3, FX activation peptide 12-mer VAQATSSSGEAP (SEQ ID NO:694) (human)
T3 peptide: VAQATSSSGEAP-biotin
Protocol: as §1, §2, §3

[4] = molecular target: T4, FX activation peptide 12-mer YDAADLDPTENP (SEQ ID NO:713) (human)
T4 peptide: YDAADLDPTENP-biotin
Protocol: as §1, §2, §3

[5] = molecular target: T5, FX activation peptide 12-mer AQATSSSGEAPD (SEQ ID NO:695) (human)
T5 peptide: AQATSSSGEAPD-biotin
Protocol: as §1, §2, §3

[6] = molecular target: T6, FX activation peptide 12-mer SGEAPDSITWKP (SEQ ID NO:701) (human)
T6 peptide: SGEAPDSITWKP-biotin
Protocol: as §1, §2, §3

[7] = molecular target: T7, FX activation peptide 12-mer QTQPERGDNNLT (SEQ ID NO:732) (human)
T7 peptide: QTQPERGDNNLT-biotin
Protocol: as §1, §2, §3

[8] = molecular target: T8, FX activation peptide 12-mer SSSGEAPDSITW (SEQ ID NO:699) (human)
T8 peptide: SSSGEAPDSITW-biotin
Protocol: as §1, §2, §3

[9] = molecular target: T9, FX activation peptide 12-mer DLDPTENPFDLL (SEQ ID NO:717) (human)
T9 peptide: DLDPTENPFDLL-biotin
Protocol: as §1, §2, §3

[10] = molecular target: T10, FX activation peptide 12-mer ADLDPTENPFDL (SEQ ID NO:716) (human)
T10 peptide: ADLDPTENPFDL-biotin
Protocol: as §1, §2, §3

[11] = molecular target: T11, FX activation peptide 12-mer GEAPDSITWKPY (SEQ ID NO:702) (human)
T11 peptide: GEAPDSITWKPY-biotin
Protocol: as §1, §2, §3

[12] = molecular target: T12, FX activation peptide 12-mer SSGEAPDSITWK (SEQ ID NO:700) (human)
T12 peptide: SSGEAPDSITWK-biotin
Protocol: as §1, §2, §3

[13] = molecular target: T13, FX activation peptide 12-mer FDLLDFNQTQPE (SEQ ID NO:725) (human)
T13 peptide: FDLLDFNQTQPE-biotin
Protocol: as §1, §2, §3

[14] = molecular target: T14, FX activation peptide 12-mer SVAQATSSSGEA (SEQ ID NO:693) (human)
T14 peptide: SVAQATSSSGEA-biotin
Protocol: as §1, §2, §3

[15] = molecular target: T15, FX activation peptide 12-mer ATSSSGEAPDSI (SEQ ID NO:697) (human)
T15 peptide: ATSSSGEAPDSI-biotin
Protocol: as §1, §2, §3

[16] = molecular target: T16, FX activation peptide 12-mer NPFDLLDFNQTQ (SEQ ID NO:723) (human)
T16 peptide: NPFDLLDFNQTQ-biotin
Protocol: as §1, §2, §3

[17] = molecular target: T17, FX activation peptide 12-mer QATSSSGEAPDS (SEQ ID NO:696) (human)
T17 peptide: QATSSSGEAPDS-biotin
Protocol: as §1, §2, §3

[18] = molecular target: T18, FX activation peptide 12-mer DLLDFNQTQPER (SEQ ID NO:726) (human)
T18 peptide: DLLDFNQTQPER-biotin
Protocol: as §1, §2, §3

B1: Cmpd #1 (monovalent anti-FX VHH polypeptide, VHH-1.1) (VHH)
VHH: EVQLVESGGGLVQPGGSLRLSCAASGSIGAFDAMGWYRQAPGKQRELVAGIMVSRGNTNYTDSVKGRFTISRDNAKNTVYLQMNSLKPEDTAVYYCKAVKRPGPGYLEVWGQGTLVTVSS
notes: no protractor; FLAG-tagged in the peptide ELISA
ELISA signal normalized relative to the background signal [1]: 1.08 fold of background | ELISA signal normalized relative to the background signal [2]: 1.06 fold of background | ELISA signal normalized relative to the background signal [3]: 1.02 fold of background | ELISA signal normalized relative to the background signal [4]: 0.87 fold of background | ELISA signal normalized relative to the background signal [5]: 0.97 fold of background | ELISA signal normalized relative to the background signal [6]: 0.88 fold of background | ELISA signal normalized relative to the background signal [7]: 0.88 fold of background | ELISA signal normalized relative to the background signal [8]: 0.86 fold of background | ELISA signal normalized relative to the background signal [9]: 1 fold of background | ELISA signal normalized relative to the background signal [10]: 0.91 fold of background | ELISA signal normalized relative to the background signal [11]: 0.93 fold of background | ELISA signal normalized relative to the background signal [12]: 0.88 fold of background | ELISA signal normalized relative to the background signal [13]: 4.38 fold of background | ELISA signal normalized relative to the background signal [14]: 0.96 fold of background | ELISA signal normalized relative to the background signal [15]: 0.98 fold of background | ELISA signal normalized relative to the background signal [16]: 3.13 fold of background | ELISA signal normalized relative to the background signal [17]: 0.96 fold of background | ELISA signal normalized relative to the background signal [18]: 3.08 fold of background

Source: US20240425837A1 (Novo Nordisk, published 2024)
